This note sets out measurements from US20230151091A1 (NEW YORK UNIVERSITY, published 2023).

For one experiment, the target named is T1, human MuSK (human, UniProt O15146 24-495).
T1 construct: Recombinant protein coated on ELISA plates (R&D Systems cat. 10189-MK) or on the Biacore chip; also called human muscle-specific tyrosine protein kinase; full length human MuSK
T1 sequence: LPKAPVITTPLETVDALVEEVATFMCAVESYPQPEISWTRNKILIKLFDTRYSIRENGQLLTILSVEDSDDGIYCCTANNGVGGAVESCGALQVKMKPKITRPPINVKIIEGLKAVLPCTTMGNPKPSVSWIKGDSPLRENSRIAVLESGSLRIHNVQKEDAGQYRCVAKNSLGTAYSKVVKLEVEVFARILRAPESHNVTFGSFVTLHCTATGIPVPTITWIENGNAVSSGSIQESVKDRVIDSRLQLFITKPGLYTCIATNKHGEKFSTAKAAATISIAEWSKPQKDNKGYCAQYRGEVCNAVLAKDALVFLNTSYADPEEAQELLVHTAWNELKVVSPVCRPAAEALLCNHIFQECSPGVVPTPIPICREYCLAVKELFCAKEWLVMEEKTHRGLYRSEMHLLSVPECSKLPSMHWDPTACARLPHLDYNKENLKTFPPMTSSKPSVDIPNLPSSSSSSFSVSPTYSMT
Kind of experiment: ELISA, plate coated with human MuSK at 0.2 µg/ml, dilution series of mAb, goat anti human Fc-HRP and TMB, OD 620 nm (8 min). The protocol: An ELISA plate was coated with human MuSK (R&D Systems, cat. 10189-MK) or mouse MuSK (in house produced in HEK293 cells) at 0.2 μg/ml. After washing and blocking the plate, a dilution series of the anti-MuSK antibodies was applied and allowed to bind for 2 hours at room temperature. […] OD at 620 nm was measured with a 96 well ELISA plate reader.
Background: ELISA stands for enzyme-linked immunosorbent assay.

Experiment [1] concerns the target T2, mECD: full-length extracellular region of mouse MuSK (E22 to T494) with C-terminal Avi- and His6-tags (mouse, UniProt Q61006 22-494, biotinylated in vitro using the BirA enzyme).
T2 construct: range 22-494; also called mouse ECD; not shown: Avi- and His6-tags
T2 sequence (looked up): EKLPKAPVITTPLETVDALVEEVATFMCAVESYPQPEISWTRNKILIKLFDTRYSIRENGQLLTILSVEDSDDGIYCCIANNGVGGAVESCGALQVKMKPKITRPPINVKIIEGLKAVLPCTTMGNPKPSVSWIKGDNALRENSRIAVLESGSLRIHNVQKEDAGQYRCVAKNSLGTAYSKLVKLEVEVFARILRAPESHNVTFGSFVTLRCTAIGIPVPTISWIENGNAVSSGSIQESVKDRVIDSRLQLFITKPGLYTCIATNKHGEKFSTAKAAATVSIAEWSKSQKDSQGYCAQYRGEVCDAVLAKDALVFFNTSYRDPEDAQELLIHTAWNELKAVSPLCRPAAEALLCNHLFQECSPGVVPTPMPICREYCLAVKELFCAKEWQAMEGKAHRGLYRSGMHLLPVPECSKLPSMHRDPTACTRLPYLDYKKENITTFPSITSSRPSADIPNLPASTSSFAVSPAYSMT
In words: bead-binding assay, IgG format: biotinylated antigen on streptavidin beads, flow cytometry, 1:1 fit; average ± s.d., n=3. (In general: A flow cytometer gives signals particle by particle.)

In experiment [2] the target is T3, hECD: full-length extracellular region of human MuSK (E22 to T495) with C-terminal Avi- and His6-tags (human, UniProt O15146 22-495, biotinylated in vitro using the BirA enzyme).
T3 construct: also called human ECD; not shown: Avi- and His6-tags
T3 sequence: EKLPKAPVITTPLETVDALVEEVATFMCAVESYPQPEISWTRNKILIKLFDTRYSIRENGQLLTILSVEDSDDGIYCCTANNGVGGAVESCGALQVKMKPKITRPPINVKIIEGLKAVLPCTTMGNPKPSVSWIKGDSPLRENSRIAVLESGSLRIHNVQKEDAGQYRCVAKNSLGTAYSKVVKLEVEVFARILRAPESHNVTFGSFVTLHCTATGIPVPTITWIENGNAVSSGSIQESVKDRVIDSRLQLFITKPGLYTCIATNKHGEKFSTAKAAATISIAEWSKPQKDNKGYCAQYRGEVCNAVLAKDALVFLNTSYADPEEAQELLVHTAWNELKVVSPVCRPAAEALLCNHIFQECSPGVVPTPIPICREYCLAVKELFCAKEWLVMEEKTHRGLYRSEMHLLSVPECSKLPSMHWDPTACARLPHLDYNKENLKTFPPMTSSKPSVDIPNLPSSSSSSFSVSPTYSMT
Described as above.

Experiment [3] has as its target T4, mFz: Fz domain and C-terminal flanking sequence of mouse MuSK (D307 to T494) with C-terminal Avi- and … (mouse, UniProt Q61006 307-494, limits assumed, biotinylated in vitro using the BirA enzyme).
T4 construct: also called mouse Fz; not shown: Avi- and His6-tags
T4 sequence (looked up): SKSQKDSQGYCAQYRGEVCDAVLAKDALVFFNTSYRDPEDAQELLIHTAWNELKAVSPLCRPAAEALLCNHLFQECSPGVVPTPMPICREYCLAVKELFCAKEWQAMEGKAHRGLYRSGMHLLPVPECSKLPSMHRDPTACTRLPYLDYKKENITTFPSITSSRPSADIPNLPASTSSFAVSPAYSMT
The experiment is described as above.

Experiment [4] deals with T5, hFz: Fz domain and C-terminal flanking sequence of human MuSK (K314-T495) with C-terminal Avi- and His6-tags (human, UniProt O15146 314-495, biotinylated in vitro using the BirA enzyme).
T5 construct: also called human Fz; not shown: Avi- and His6-tags
T5 sequence: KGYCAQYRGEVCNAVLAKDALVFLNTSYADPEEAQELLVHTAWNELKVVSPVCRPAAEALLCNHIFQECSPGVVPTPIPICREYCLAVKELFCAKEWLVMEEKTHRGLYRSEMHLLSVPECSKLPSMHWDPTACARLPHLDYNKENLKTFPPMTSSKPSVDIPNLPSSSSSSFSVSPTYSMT
The description is as above.

In experiment [5] the target is T2, mECD: full-length extracellular region …. In words: bead-binding titration, IgG format: antigen immobilized on streptavidin beads, MFI by flow cytometry, curve is the 1:1 fit.
The target of experiment [6] is T4, mFz: Fz domain and C-terminal flanking …. The experiment is described as above.
Experiment [7] addresses T2, mECD: full-length extracellular region …. Kind of experiment: bead-binding titration, Fab format: antigen immobilized on streptavidin beads, MFI by flow cytometry, curve is the 1:1 fit.
The target of experiment [8] is T3, hECD: full-length extracellular region …. The experiment is described as above.
The target of experiment [9] is T4, mFz: Fz domain and C-terminal flanking …. Described as above.
Experiment [10] concerns the target T5, hFz: Fz domain and C-terminal flanking …. The experiment is described as above.
For experiment [11], the target named is T2, mECD: full-length extracellular region …. Kind of experiment: bead-binding assay, Fab format: biotinylated antigen on streptavidin beads, flow cytometry, 1:1 fit; average ± s.d., n=3.
For experiment [12], the target named is T3, hECD: full-length extracellular region …. The experiment is described as above.
In experiment [13] the target is T4, mFz: Fz domain and C-terminal flanking …. The experiment is described as above.
The target of experiment [14] is T5, hFz: Fz domain and C-terminal flanking …. The experiment is described as above.

B1: 17H10 (antibody, V domains shown)
VH: QVQVQESGPGLVKPSQTLSLTCTVSGGSITARYYSWSWIRQPPGKGLEWMGVIAYDGSTYYSPSLKSRTSISRDTSKNQFSLHLSSVTPDDTAVYYCARGSSRVAAAFDSWGQGTQVTVSS
VL: SYELTQSPSVSVALRQTAKITCGGNRIGGKSVQWYQQKPGQAPMLVIYADSRRPSGIPERFTGSNSGNTATLTITGAQAEDEADYYCHVWGSTASADFGGGTHLTVL
notes: human IgG1 with the LALA mutations (L234A, L235A); produced in HEK293 cells
The EC50 (read off the curve) is the midpoint of the concentration-response curve. Take B1: the “EC50 (read off the curve)” value in the experiment with human MuSK is about 0.02 µg/mL.

B2: 14D10 (antibody, V domains shown)
VH: ELQLVESGGGLVQPGGSLRLSCAASGFTFDDYGMSWVRQAPGKGLEWVSAIPWNGGSTYYKESVKGRFTISRDNAKKTLYLQMNSLKSEDTAVYYCAKRSGRIAFGALDAWGQGTLVTVSS
VL: QAVVTQEPSLSVSPGGTVTLTCGLSSGSVTSSNYPDWYQQTPGQAPRTLIYTTNSRHSGVPSRFSGSISGNKAALTITGAQPEDEADYYCALYMGGGSNVYVFG
notes: as for B1
On to B2, for which the “EC50 (read off the curve)” value with human MuSK was about 0.04 µg/mL.

B3: hIgG1-X3 (antibody, V domains shown)
VH: EVQLVESGGGLVQPGGSLRLSCAASGFTISSSSIHWVRQAPGKGLEWVASISSSSGYTYYADSVKGRFTISADTSKNTAYLQMNSLRAEDTAVYYCARSWYEMWMSGYFGFDYWGQGTLVTVSS
VL: DIQMTQSPSSLSASVGDRVTITCRASQSVSSAVAWYQQKPGKAPKLLIYSASSLYSGVPSRFSGSRSGTDFTLTISSLQPEDFATYYCQQSSSSLITFGQGTKVEIK
notes: human IgG1 Fc containing LALA mutations; also called X3 in human IgG1 format
A word on the Kd: it is the concentration at which binding is half-saturated. A lower Kd goes with tighter binding. As for B3, the Kd was 0.079 nM in [1], 0.074 nM in [2], 0.07 nM in [3] and 0.057 nM in experiment [4]. Also, the “EC50 (read off the curve)” value is about 0.08 nM in [5] and about 0.07 nM in [6].

B4: X1 Fab (Fab, V domains shown)
VH: EVQLVESGGGLVQPGGSLRLSCAASGFTFSSSSIHWVRQAPGKGLEWVASISSSSGSTSYADSVKGRFTISADTSKNTAYLQMNSLRAEDTAVYYCARKYWSQYYWAHYYGGLDYWGQGTLVTVSS
VL: DIQMTQSPSSLSASVGDRVTITCRASQSVSSAVAWYQQKPGKAPKLLIYSASSLYSGVPSRFSGSRSGTDFTLTISSLQPEDFATYYCQQSSSSLITFGQGTKVEIK
notes: m52 is the same Fab tetramerized with streptavidin; also called Fab Clone X1 (monovalent Fab format)
Regarding B4, the “EC50 (read off the curve)” value was about 1 nM in experiment [7], about 0.5 nM in [8], about 1 nM in experiment [9] and about 0.4 nM in experiment [10]. Further, the equilibrium dissociation constant (Kd) was found to be 1.34 nM in experiment [11], 0.55 nM in experiment [12], 1.09 nM in [13] and 0.39 nM in [14].
